In the domain aggregation screens of Martell et al. (2025):

Assay: soluble fraction after stress (log2 fold change); higher = more stays soluble; pooled small domains, quantitative proteomics
Conditions: stress: 75 degC
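Further: 20 min heating vs room temperature control held 20 min.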

| Sequence | soluble fraction (log2) |
| --- | --- |
| HMTKQRSIILDLLKANQDRHLTAEEMLELLNQNHTPVSKATLYRYLDMLVSQNAVRKFIIDDQPSAGYQYL | -2 |
| HMTKSTSMDLGGFMIVEGSETVRLGGQILQKDVDYTIDYFSGKINFISEEALNPGAEISVSYEENQ | -0.225 |
| HMTKTEFLEALRRALNGNMAAASVEDNLKFYENYFYSEEAKGRSEAAVLSELGDPRILARTLIDAAER | 0.154 |
| HMTKTEFLNLLEQRLFVLNDNERADLLSEYKQHIEMKIQSGLSEEEAIADFGDPEELIKELLEAY | -0.956 |
| HMTKTFDSPEDADNDVLAKTLFQIFGVQSVYLKENFVTITKSNSVGWHTLMEKTGHTLEEHLKF | 0.0905 |
| HMTKTKFLSKDMILSAMSRTKSNRAAARYLSVSFVHYKKYAREYKDETSGVSLWEKHKNQSGTGIPK | -2.11 |
| HMTKTSQEDEDIMRHLDELHTRWPFLGQRKLIEELKDQGIQIGRKRLRRLMKVMGIEAIAPK | -2.12 |
| HMTKVMVPNVVGMSRGEAEEALRGVKLQVDLKREVSDDPEVKPEEVLRQTPDAQTSVPQGSVVTLYVADKP | 0.0285 |
| HMTKYEKKIFEIVNASRDHLTAEQVLAALREEYPAVSQATVYNNLKKLTSDGLLRKLTLADSPDRYD | -0.202 |
| HMTLAAATESREYLADLARRLDAADHGDKTRIKAEAAGLLGWSMATLHARLARDVGWTSGRK | -0.241 |
| HMTLDEFTDLMNLFKTGHIEQKPVILYGYNYWTSLKSWFEFNNMKFPEMYIDGIINTVDEFKILYNKIF | -1.38 |
| HMTLGPKQMGEAIIKNLKEKTGKSLEEWSQRILIHELTDKKEIIDFLKNDNGLGHFQALKIFEHLNGK | -0.281 |
| HMTLGQHIQALRKEAGYSQEALGEALGVTRQSISKWESDQAIPEVDKLVTLSRLFQVPVGVLLQVEQP | -0.348 |
| HMTLGSVRTVRQVLDDGRLLVADSGGNVTLVRRAGTLAKENVNTGDRVSVDSSVRFALTLIPV | -0.931 |
| HMTLPEKSKRLFSQDDFWDQIFYRIGEGQSLREVSKYYKIPYTTIHDRIHSDEGIKLKYLEALTS | -0.882 |
| HMTLPQEPTVLPRPLRVGDTVHIRTLDKDAEVLALPDARGMVAVRAGIINTKVKLTDLTLVEEK | -0.0272 |
| HMTLRDRDQALEELWGQLADVPMDSETERLLEPFMGWGVGVSRDEIWHWFDRRHSKGIGHLLYS | -1.42 |
| HMTLSENEKIIVDTIMKYQPLHIDVLNQQVKVDFYTLLGLLTKLEMEGIVLKNPGNIYKINTL | -0.378 |
| HMTLTPEQQAARRSEIVDIALRLIAENGFQKTSMREIADLAKMGKSSLYDFFKTKDEIAVYAMEKK | -0.714 |
| HMTMEFGEFLAKLRKERGYYQKEVAAYLNVTVATISNYEKNVHAPDLDTLVKLADFYDVSTDYLLQRT | -2.7 |
| HMTMGAAEAQALKDEALELYRTGGTQEDVVRAIEMYEQAAEAGNAQAASDLAYLKANGVYETAMNN | 0.263 |
| HMTMQQGTISRLNHSRGFGFLTTPDGEDLFFHRTNVHETPFARLQVGDRVTYDVQVTPRGTRADKVQLNM | -0.261 |
| HMTMRFVVADGQNFGSIAQSKALEAVKKGNTEFNYKDVDYTVDIQSDDFYVVYQGRDIMGYASR | -1.11 |
| HMTMTIEITVNGKTKTLVAELSLADLLRDLGMTKGRIAVELNGHIVPRSQFSSKTISNLDSIEIVQ | -3.43 |
| HMTNADRYIGQEATVTEKISNELSTGAVRIGGLVWTARTVDNSEAEEGERVTVEAIEGAKLLVKRR | 0.132 |
| HMTNEPRLTNMGFNKMLIENYKMILEYQDFFIRISTQIGIININGFDLKLGEMTADEVLVTGKIESIDL | 0.429 |

| Sequence | soluble fraction (log2) |
| --- | --- |
| HMTNIDRLIGQTAIVKETINNKKEQGVVRINGMDWTARTEEIDEVILKGKPVEILDIQGIKLIVRKK | -0.545 |
| HMTNIELYQRLLNLGFTPAQAKILLVQYDETRLTDNLNYVDFKKQQGNIENLPAYTTTIIKKDVRL | -1.14 |
| HMTNIQFINLKMTDNHPWIHQYIKDIILPPQTRIVMIKRNDIKTIPKGERRIEKDDELILSAFESQT | -2.06 |
| HMTNKKIILEIFQNSDKPLIVEEISKKMFEKTGKKMILSTIYRNLKNMEDVGILKKIYNEDGSYMYIF | -1.02 |
| HMTNKQEYAYQWLKSSIIENKIKPSTLLVERHLSEMLHISRTPVRTALMRLADEGFVVISPGRGMVVA | -2.32 |
| HMTNQEFNAAFKPFLDYFPTTEMTKEKINIYYLALSDLSKEQLGSAFISMVKNRVYKNFPQVAEIRQYATN | -0.803 |
| HMTNTDYPGKVVPVDPDGKTLKPDGDASYNDKPGTKVKTPTVPGYTAEVPNVEVPVGGGDIKVTYHKKPV | -0.0351 |
| HMTNVYSLIGKRGIVVEDIDWQKGTGQVKIDGELWSVKTNEQINISKGTEVEVENIEGVKVFVKPI | -0.121 |
| HMTNYGTVRPGARGQAVTALQQALIRHGYKLTADGIYGRATRQAVRAFQQKHKLKVDGIVGSKTWALLLAD | -2.13 |
| HMTPDGNATVWSANGYGVRLRTGPGKGYAIIGVYSVGTTVKVLERGPAGGWDHIQVGSRVGYMMNEFLHYY | -3.16 |
| HMTPDLSEFKERLRQILPGEPIEVRTANDGIVLSGTVTSIAALDRALDLAERYAPDKVSNLLSVG | 0.149 |
| HMTPELTAEEREVLSLLGDEPRTLAELIAASGRDYAALSVLLMGLELSQAVRQLPGNRYERF | -0.84 |
| HMTPGPFLVYITGAVERPNVLVTLDYGSRVIDALNAAGGSRIDANLDLVNLAQRLVDGDQIHVPTLR | -1.17 |
| HMTPGPYETLKPAPLGSYIEPKIGFATAIEIARKEAVQLGIKTEAGGIWYGGDFPFYNVSFFDPDD | -0.842 |
| HMTPKVTVPDVTGQTFSSAKQILESLGFTVKQQGSTDETDQVIDQNPTSGEADKGATITLTTKSS | 0.0908 |
| HMTPPAQQPHEGLPTDETATDAKTLVQKSRWWLEEEQRQREAGNTAYAERIRLALIQLLYRAERA | -0.713 |
| HMTPQNAAAVLRYLSSGAIKGVGPSTAQRIVEKFGAESLDIIQNKPEELATIRGISLSKALAVSEEYNKQY | -0.289 |
| HMTPTFSNQDLIKAGLAGSPVAKRRRERLGELLGIGYGNAKQLLKRLDLFAIDRPTFERAVAQLDQEGK | -0.465 |
| HMTPVSQIATKDIEEKIDSLSDEYKDPFILHFKGFKYKEIADQLDIPIGTVKSRIFIARKKLIDLLPDY | 0.0524 |
| HMTQEHDESVNLGKRLLDQALSRFGTSYRQLKKSEIKRILQSSGASTFKYILHQIGLGNRVPLAIANLIV | -0.0539 |
| HMTQEMPAEVKKKADAFNNAMDEENYTEAKAILAELEQNTAPSYPLLLQMQTRYAFETASWE | 0.00338 |
| HMTQFSASSERAGAGGAYRTTLRAMEQNGDLLQISILLPDAVTAKHAATVWPERAQAIYTAILSELLK | -1.71 |
| HMTQGIDQISFSQFLDKVQSGEVTDVRISGSDITGTLKTGGKFETVAGNYEKIWDLLRENKVVFVVDSP | 0.332 |
| HMTQNSAITNRVLYMQRTLRQYGYAVPESGNFDRTTRAHAAEFLYNATGLPVRENQSVQEFYRAFQRVQG | -1.77 |
| HMTQRRLQSELDSIPGVGAGTRTKLLRTLGSVDAVLRASEAELLAAGANRRQVASIQAHAAAVER | -0.0213 |
| HMTQSQSLQSQFEQLEKAYQDNLHLLSPKQKLIIQEAGKIIQQLPQQAQIQAKVNLYQSLSAEISKESQQ | 0.1 |

| Sequence | soluble fraction (log2) |
| --- | --- |
| HMTQTDINQIETLVHEGNKLAAVKLLMDTAHIGLKEAKDIIDNFFLGKQTDLQAAVAQVQTR | 0.902 |
| HMTRHIQVNDSIASTPIEDVYFSTRTYNALLNNGISVIGDLSKYTHDDLYASFQGLGRAGVLEIEAYLRQD | -1.43 |
| HMTRHSSVDFAGYILRNKENEPIFGFGKHKGKTVVEVLQREQGYFGWLMEADFPLYTKKVLTAIRLNTLNS | -0.261 |
| HMTRLDLQNAFRVLPPEIQPAAVLFFLQERKQREIAKILGIGLPLVKYRIRKARELLAQFLRKEA | -0.225 |
| HMTRNEFLTALRGRLSALPKEEQDAALKYYEEYFDEAESEEDAARQLGSPDSIAEKILADYA | 0.418 |
| HMTRQNTAVQQSDMAHHKASELTEGMSIVHSHFGRGTIISIETADDPRVTVDFSSEGRKTMLLRFAKFAIE | -0.941 |
| HMTRQRQLIYNIIQRADDHPTAEMIYARAKAEMPSIAFGTVYRNLKLMVDAGEILHIPVAGEPDRYDK | -1.96 |
| HMTRVANIPYSEFLKLVETDKINDVSMVGKTISGHLDDGTKFSTYTPPNDPNLIDKLSKHNVIIKAGPE | -0.000643 |
| HMTRVDKLQTWLSLPREQRDWDEGALMLLQLTGNKIMYRNLSVNPEGKANFIEGKLQQYLEFRLA | -1.25 |
| HMTSAHEKAFDLFDGGKLSEKALLIAVGAERSGFELAGDLRLRTLTAFEDGRLSEDAMIKLL | -0.299 |
| HMTSAIAEGTVIRLTQSTNIRESMSEDAPKVATAFSGEKVTVIMSYAEGWTKVTYGDKTGYIKTELL | -1.1 |
| HMTSAPHHIAAVLRDAIYRGVLEEGGPLHQARIAQSLGVSPIPLREALRLLETEGLVEFRGYRGAFVT | -0.557 |
| HMTSDADSLRDKTGYVAEQVTSKGGKVNLYDGGFDSLYSARSTGETISTGTEIRVVDPGGGNMLVVEPV | 0.948 |
| HMTSDYEPSEKDEKAVIGIAFLRNTDVYDVDIDKAEAIKALKANNDIYQKFVKFFPFVKLPSLYDDFQ | 0.251 |
| HMTSGPAWPALSAQQRSVLAPLQRDWHTIDAARKAKWLEVAARFPSMPAEERQRVQERMAEWA | -0.0911 |
| HMTSKIIIGDSYSKINKLLGEPENMKKRKFLDNEYLMVLYSINKKNYRLYFKDNILFELEDI | -0.991 |
| HMTSLQDLLEELRVIRETLTGSQVLSDMQLFSQLRNLGDIKAALTRMQDNPAAARMVGEVDKLLETMFAS | -1.97 |
| HMTSLSYINDLVTGATAQGLYRIVVPNQFMDDNMANVLRRTYGYQVQSRTSLMGTFDDYIISWAPPM | -2.9 |
| HMTSMTHLGRHPDSEISLDDISVSRRHAEIERQGHEYVLRDSGSLNGTYVNQQRVDSVVLQQGDEIL | 0.48 |
| HMTSPLQIHPNPATKHIELGLESPEVVLIKDINGKTVYQELVAPNQYIDIEHLKNGIYFIESKNKFGKLIK | 0.0829 |
| HMTSPNPLIRSTTPGLETNKKGGIIVDENEMSTRENVFAGGDAVTGAATVILAMGAGKKAAAAIDAKLQN | 0.461 |
| HMTSPQGIERFLASGVIEGVGKAMAARIVAVFGGQTLEIIEKQPHRLREVRGIGVKTAEKIHASYQEKA | -0.841 |
| HMTSPVEDLLDKAIQLYREENFEEAIAKWEEVLALDPSKLEAKFNIEIAQDRIKEKQIQEDLKSS | 0.341 |
| HMTSQVTVHVVGAVEKPGVVTLDAPSRVQDALEAAGGALPEAELSGVNLARELFDGEQIVVPAQGEDV | 0.342 |
| HMTSSVIIPKLIGKTEEEAKVALAGLNVQVLYETHGDQANGIVIKQSFEEGTKVIKGVSIVITVNKVS | -1.91 |
